# B1: Hu004-65 antibody (full-length human IgG1, kappa) (antibody, V domains shown)
# VH: EVQLVESGGGLVQPGGSLRLSCAASGFTFSGYGMSWVRQAPGKGLEWVATITSGGTYTYYPDSVKGRFTISRDNAKNSLYLQMNSLRAEDTAVYYCARSLAGNAMDYWGQGTLVTVSS
# VL: DIQMTQSPSSLSASVGDRVTITCRASQSITKSLNWYQQKPGKAPRLLIRVASTLQSGVPSRFSGSGSGTDFTLTISSLQPEDFATYYCQHSYSFGQGTKLEIT
# notes: also called candidate antibody Hu004-65; monoclonal antibody Hu004-65
# B2: Hu004-101 antibody (full-length human IgG1, kappa) (antibody, V domains shown)
# VH: B1 VH
# VL: DIQMTQSPSTLSASVGDRVTITCRASQSISNWLAWYQQKPGEAPKLLIYKASNLESGVPSRFSGSGSGTEFTLTISSLQPDDFATYYCQQFGTFGQGTKVEIK
# Target: human CD47 protein (antigen of the SPR affinity determination) (human, UniProt Q08722 19-139, limits assumed)
# Experiment: affinity for a human CD47 protein (method not given; SPR in Example 3)
row,Binder,Kd
1,B1,146 nM
2,B2,320 nM
